Assay results reported in article PMC6522503.

What was measured:
CDK2 = CDK2 (UniProt P24941); test: anti-HA co-IP, anti-FLAG blot; conditions: reference: wild type p21; sites T55
CDK4 = CDK4 (UniProt P11802); test: anti-HA co-IP, anti-FLAG blot; conditions: reference: wild type p21; sites T55

## p21 (from UniProt P38936) T55A p21
CDK2
  binding against the reference: weaker
CDK4
  binding against the reference: weaker
